Positions count from the first letter of the chain named. Numbers in names are those of the source. Bounds are passed on as bounds.

Sequences and labels used below:
T1: human IL-2 receptor (IL-2Rα, IL-2Rβ, IL-2Rγ) (human, UniProt P01589 22-272; P14784 27-551; P31785 23-369)
T1 sequence (looked up) 1: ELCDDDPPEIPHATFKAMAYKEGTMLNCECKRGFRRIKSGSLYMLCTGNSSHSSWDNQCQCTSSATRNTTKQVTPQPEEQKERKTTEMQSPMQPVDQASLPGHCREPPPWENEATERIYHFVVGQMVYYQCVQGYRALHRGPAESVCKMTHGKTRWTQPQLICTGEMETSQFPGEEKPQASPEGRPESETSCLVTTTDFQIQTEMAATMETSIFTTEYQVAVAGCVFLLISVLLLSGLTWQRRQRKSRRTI
T1 sequence (looked up) 2: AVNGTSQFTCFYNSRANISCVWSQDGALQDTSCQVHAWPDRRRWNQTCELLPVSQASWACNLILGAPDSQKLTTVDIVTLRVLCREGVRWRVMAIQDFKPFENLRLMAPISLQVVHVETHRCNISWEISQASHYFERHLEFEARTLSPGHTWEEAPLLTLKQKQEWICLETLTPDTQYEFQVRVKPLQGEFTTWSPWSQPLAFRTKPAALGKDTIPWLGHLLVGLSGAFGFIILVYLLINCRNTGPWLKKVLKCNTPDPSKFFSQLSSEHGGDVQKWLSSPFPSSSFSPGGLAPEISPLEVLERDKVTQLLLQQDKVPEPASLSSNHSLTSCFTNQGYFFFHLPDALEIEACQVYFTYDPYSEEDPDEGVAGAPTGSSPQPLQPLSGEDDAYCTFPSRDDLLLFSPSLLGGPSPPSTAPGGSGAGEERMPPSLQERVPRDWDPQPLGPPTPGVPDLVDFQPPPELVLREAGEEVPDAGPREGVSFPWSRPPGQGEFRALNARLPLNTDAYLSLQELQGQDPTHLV
T1 sequence (looked up) 3: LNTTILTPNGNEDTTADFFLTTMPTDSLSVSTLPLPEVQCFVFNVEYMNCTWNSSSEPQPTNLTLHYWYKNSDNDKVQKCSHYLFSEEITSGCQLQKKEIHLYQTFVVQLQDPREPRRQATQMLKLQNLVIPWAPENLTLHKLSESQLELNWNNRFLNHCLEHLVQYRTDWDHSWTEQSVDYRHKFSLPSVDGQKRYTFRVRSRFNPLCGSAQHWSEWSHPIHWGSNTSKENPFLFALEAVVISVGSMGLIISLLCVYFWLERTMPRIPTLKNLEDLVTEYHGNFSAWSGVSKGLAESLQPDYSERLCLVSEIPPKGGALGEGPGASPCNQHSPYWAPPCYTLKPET

B1: PD-L1(mut2)-Fc (Fc fusion)
chain 1: FTVTVPKDLYVVEYGSNMTIECKFPVEKQLDLAALQVYWMMEDKNIIQFVHGEEDLKVQHSSYRQRARLLKDQLSLGNAALQITDVKLQDAGVYTCLIAYKGADYKRITVKVNAPYNKINQRILVVDPVTSEHELTCQAEGYPKAEVIWTSSDHQVLSGKTTTTNSKREEKLFNVTSTLRINTTTNEIFYCTFRRLDPEENHTAELVIPELPLAHPPNERGGGGSGGGDKTHTCPPCPAPEDEGGPSVFLFPPKPKDTLMISRTPEVTCVVVDVSHEDPEVKFNWYVDGVEVHNAKTKPREEQYNSTYRVVSVLTVLHQDWLNGKEYKCKVSNKALPAPIEKTISKAKGQPREPQVYVYPPSREEMTKNQVSLTCLVKGFYPSDIAVEWESNGQPENNYKTTPPVLDEDGSFALVSKLTVDKSRWQQGNVFSCSVMHEALHNHYTQKSLSLSPGK
chain 2: B1 chain 1 with D242K, E243K, Y359L, T374L, N398R, K400M, T402W, E408S, A413F, V415Y
B2: IL-2(L18R/Q22E/R38D/K43E/E61R/Q126T/S130R)/PD-L1(mut2)-Fc (Fc fusion)
chain 1: B1 chain 1
chain 2: FTVTVPKDLYVVEYGSNMTIECKFPVEKQLDLAALQVYWMMEDKNIIQFVHGEEDLKVQHSSYRQRARLLKDQLSLGNAALQITDVKLQDAGVYTCLIAYKGADYKRITVKVNAPYNKINQRILVVDPVTSEHELTCQAEGYPKAEVIWTSSDHQVLSGKTTTTNSKREEKLFNVTSTLRINTTTNEIFYCTFRRLDPEENHTAELVIPELPLAHPPNERGGGSGAPTSSSTKKTQLQLEHLRLDLEMILNGINNYKNPKLTDMLTFEFYMPKKATELKHLQCLERELKPLEEVLNLAQSKNFHLRPRDLISNINVIVLELKGSETTFMCEYADETATIVEFLNRWITFCTSIIRTLTGGGGSGGGDKTHTCPPCPAPEKKGGPSVFLFPPKPKDTLMISRTPEVTCVVVDVSHEDPEVKFNWYVDGVEVHNAKTKPREEQYNSTYRVVSVLTVLHQDWLNGKEYKCKVSNKALPAPIEKTISKAKGQPREPQVYVLPPSREEMTKNQVSLLCLVKGFYPSDIAVEWESNGQPENRYMTWPPVLDSDGSFFLYSKLTVDKSRWQQGNVFSCSVMHEALHNHYTQKSLSLSPGK
B3: IL-2(R38D/K43E/E61R)/PD-L1(mut2)-Fc (Fc fusion)
chain 1: B1 chain 1
chain 2: B2 chain 2 with R243L, E247Q, T351Q, R355S
B4: IL-2(R38D/K43E/E61R/Q126T)/PD-L1(mut2)-Fc (Fc fusion)
chain 1: B1 chain 1
chain 2: B2 chain 2 with R243L, E247Q, R355S
B5: IL-2(L18R/Q22E/R38D/K43E/E61R)/PD-L1(mut2)-Fc (Fc fusion)
chain 1: B1 chain 1
chain 2: B2 chain 2 with T351Q, R355S
B6: IL-2(L18R/Q22E/R38D/K43E/E61R/Q126T)/PD-L1(mut2)-Fc (Fc fusion)
chain 1: B1 chain 1
chain 2: B2 chain 2 with R355S

The experiment concerns the target T1, human IL-2 receptor (IL-2Rα, IL-2Rβ, …). The experiment can be described thus: cell-based or functional assay.
In the case of B1, the “IL-2 biological activity, HEK-IL-2” value is less than 0.1% and the “IL-2 biological activity, HEK-IL-2-PD-1” value is less than 0.1%.
With B2, the “IL-2 biological activity, HEK-IL-2” value was less than 0.1% and the “IL-2 biological activity, HEK-IL-2-PD-1” value was less than 0.1%.
For B3, the “IL-2 biological activity, HEK-IL-2” value stood at 16% and the “IL-2 biological activity, HEK-IL-2-PD-1” value was determined as 76%.
For B4 the same measures were 2% and 20%.
For B5, the “IL-2 biological activity, HEK-IL-2” value was 4% and the “IL-2 biological activity, HEK-IL-2-PD-1” value is 35%.
For B6 the same measures were less than 0.1% and 5%.

(Values after patent US20240190962A1 (IMMUNOWAKE, published 2024).)
